Here are results for 94 variants from the supplement of paper PMC10567573.

B1: ZNF263 (parent)
chain: FGGNPRFLSLHRAHLGEEAHKCLE
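Note: lentivirally expressed fusions sorted by FACS into six bins by GFP to DsRed ratio, PSI derived from sequencing read proportions per bin multiplied by bin number.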

The variants in the data set derive from B1. Nature of the data set: protein stability index of a GFP-peptide fusion (GPS, HEK-293T) (PSI 1-6); higher = more stable. Particulars: c terminus: a fixed tail appended.
Regarding FGGNPRFLSLHIAHLGEEAHKCLE, the protein stability index is 1.84.
The result for FGGNPRFLSLHEAHLGEEAHKCLE reads 1.76.
The result for FGGNPRFLSLHRAHLPEEAHKCLE reads 2.12; that for FGGNPRFLSLHRAHLHEEAHKCLE, 1.7; that for FGGNPRFLSLHRAHLQEEAHKCLE, 2.76.
The result for FGGNPRFLSLHRAHLAEEAHKCLE reads 2.1; that for FGGNPRFLSLHRAHLIEEAHKCLE, 2.06; that for FGGNPRFLSLHRAHLSEEAHKCLE, 2.06.
Consider FGGNPRFLSLHRAHLVEEAHKCLE, for which the protein stability index came to 2.42.
With FGGNPRFLSLHRAHLWEEAHKCLE the figure was 1.87.
With FGGNPRFLSLHRAHLFEEAHKCLE, the protein stability index was 1.9.
With FGGNPRFLSLHRAHLTEEAHKCLE the figure was 1.94.
The result for FGGNPRFLSLHRAHLNEEAHKCLE reads 1.92; that for FGGNPRFLSLHRAHLMEEAHKCLE, 2.19.
The result for FGGNPRFLSLHRAHLDEEAHKCLE reads 1.63; that for FGGNPRFLSLHRAHLCEEAHKCLE, 1.83.
Turning to FGGNPRFLSLHRAHLEEEAHKCLE, the protein stability index stood at 2.51.
The result for FGGNPRFLSLHRAHLLEEAHKCLE reads 2.55; that for FGGNPRFLSLHRAHLREEAHKCLE, 1.64; that for FGGNPRFLSLHRAHLKEEAHKCLE, 1.62.
The result for FGGNPRFLSLHRAHLGEECHKCLE reads 2.48; that for FGGNPRFLSLHRAHLGEESHKCLE, 2.48; that for FGGNPRFLSLHRAHLGEEQHKCLE, 1.9.
The result for FGGNPRFLSLHRAHLGEEYHKCLE reads 1.57.
For the variant FGGNPRFLSLHRAHLGEENHKCLE, the protein stability index was determined as 1.66.
The result for FGGNPRFLSLHRAHLGEEVHKCLE reads 1.91; that for FGGNPRFLSLHRAHLGEEHHKCLE, 1.75; that for FGGNPRFLSLHRAHLGEEEHKCLE, 2.14.
With FGGNPRFLSLHRAHLGEEGHKCLE the figure was 1.58; with FGGNPRFLSLHRAHLGEEMHKCLE, 2.18; with FGGNPRFLSLHRAHLGEEDHKCLE, 1.99.
The result for FGGNPRFLSLHRAHLGEEFHKCLE reads 1.44; that for FGGNPRFLSLHRAHLGEEWHKCLE, 2.23.
For FGGNPRFLSLHRAHLGEEIHKCLE, the protein stability index was determined as 2.36.
The result for FGGNPRFLSLHRAHLGEELHKCLE reads 1.39.
With FGGNPRFLSLHRAHLGEERHKCLE the figure was 1.59.
Take FGGNPRFLSLHRAHLGEEKHKCLE: the protein stability index is 1.49.
The result for FGGNPRFLSLHRAHLGEETHKCLE reads 1.95; that for FGGNPRFLSLHRAHLGEEPHKCLE, 2.08.
With FGGNPRFLSLGRAHLGEEAHKCLE the figure was 2.71; with FGGNPRFLSLCRAHLGEEAHKCLE, 2.23.
The result for FGGNPRFLSLVRAHLGEEAHKCLE reads 2.55; that for FGGNPRFLSLPRAHLGEEAHKCLE, 1.75; that for FGGNPRFLSLTRAHLGEEAHKCLE, 3.17.
Take FGGNPRFLSLARAHLGEEAHKCLE: the protein stability index was 1.41.
For the variant FGGNPRFLSLRRAHLGEEAHKCLE, the protein stability index was determined as 1.91.
With FGGNPRFLSLERAHLGEEAHKCLE the figure was 2.01; with FGGNPRFLSLKRAHLGEEAHKCLE, 1.91; with FGGNPRFLSLNRAHLGEEAHKCLE, 1.8.
The result for FGGNPRFLSLIRAHLGEEAHKCLE reads 1.87; that for FGGNPRFLSLQRAHLGEEAHKCLE, 1.6.
Turning to FGGNPRFLSLDRAHLGEEAHKCLE, the protein stability index was 2.22.
For the variant FGGNPRFLSLYRAHLGEEAHKCLE, the protein stability index stood at 3.3.
As for FGGNPRFLSLSRAHLGEEAHKCLE, the protein stability index was 3.19.
With FGGNPRFLSLFRAHLGEEAHKCLE the figure was 2.41.
Regarding FGGNPRFLYLHRAHLGEEAHKCLE, the protein stability index turned out to be 3.04.
With FGGNPRFLVLHRAHLGEEAHKCLE the figure was 1.71; with FGGNPRFLSTHRAHLGEEAHKCLE, 1.99; with FGGNPRFLSFHRAHLGEEAHKCLE, 1.8.
The result for FGGNPRFLSMHRAHLGEEAHKCLE reads 2.02; that for FGGNPRFLSEHRAHLGEEAHKCLE, 2.64.
As to FGGNPRFLSWHRAHLGEEAHKCLE, the protein stability index amounted to 3.91.
With FGGNPRFLSVHRAHLGEEAHKCLE the figure was 2.66; with FGGNPRFLSPHRAHLGEEAHKCLE, 2.01; with FGGNPRFLSAHRAHLGEEAHKCLE, 1.74.
With FGGNPRFLSIHRAHLGEEAHKCLE the figure was 2.06; with FGGNPRFLSGHRAHLGEEAHKCLE, 1.34.
The result for FGGNPRFLSYHRAHLGEEAHKCLE reads 2.33.
Regarding FGGNPRFLSNHRAHLGEEAHKCLE, the protein stability index stood at 2.22.
With FGGNPRFLSDHRAHLGEEAHKCLE the figure was 2.47; with FGGNPRFLSSHRAHLGEEAHKCLE, 1.62.
With FGGNPRFLSHHRAHLGEEAHKCLE the figure was 2.17; with FGGNPRFLSRHRAHLGEEAHKCLE, 2.69; with FGGNPRFLSKHRAHLGEEAHKCLE, 2.24.
The result for FGGNPRFLSQHRAHLGEEAHKCLE reads 2; that for FGGNPRFLSLHRPHLGEEAHKCLE, 1.56.
Regarding FGGNPRFLSLHRIHLGEEAHKCLE, the protein stability index worked out at 1.35.
On to FGGNPRFLSLHRKHLGEEAHKCLE, for which the protein stability index came out at 1.94.
Take FGGNPRFLSLHRTHLGEEAHKCLE: the protein stability index was 1.98.
The result for FGGNPRFLSLHRYHLGEEAHKCLE reads 1.72.
With FGGNPRFLSLHRMHLGEEAHKCLE the figure was 2.21; with FGGNPRFLSLHRCHLGEEAHKCLE, 1.71; with FGGNPRFLSLHRLHLGEEAHKCLE, 1.43.
The result for FGGNPRFLSLHRQHLGEEAHKCLE reads 1.48; that for FGGNPRFLSLHRFHLGEEAHKCLE, 2.52.
FGGNPRFLSLHRVHLGEEAHKCLE: the protein stability index came out at 1.79.
With FGGNPRFLSLHRHHLGEEAHKCLE the figure was 2.26; with FGGNPRFLSLHRSHLGEEAHKCLE, 1.71; with FGGNPRFLSLHREHLGEEAHKCLE, 1.66.
The result for FGGNPRFLSLHRGHLGEEAHKCLE reads 1.99.
The result for FGGNPRFLSLHRDHLGEEAHKCLE reads 1.81; that for FGGNPRFLSLHRNHLGEEAHKCLE, 2.04; that for FGGNPRFLSLHRRHLGEEAHKCLE, 2.08.
In the case of FGGNPRFLSLHRWHLGEEAHKCLE, the protein stability index came out at 1.81.
